This is an account of results in article PMC12831531 (Cell reports, 2025).

Where two headings read alike, the source gives them in different places.

Experiment [1] addresses hu4D5 human IgG1 antibody with Fc variant G2 (human). The experiment is described as follows: BLI; Octet RED96e; hu4D5 IgG1 variants on CH1-binding (FAB2G) biosensors; CD16A F158 5000–156.25 nM, V158 2000–62.5 nM; room temperature, PBS pH 7.4, 0.02% Tween 20, 0.1% BSA; steady state.
Experiment [2] deals with hu4D5 human IgG1 antibody with Fc variant G5 (human). The description is as above.
Experiment [3] addresses hu4D5 human IgG1 antibody with wild-type Fc (human). The description is as above.
Experiment [4] concerns the target vFcγR on AD169-infected MRC5 cells (Figure 1C). The experiment in a line: flow cytometry on cells. (Flow cytometry measures light scatter and fluorescence of single cells or particles in a stream.)
Experiment [5] has as its target human IgG1 Fc (wild type, without Fab arms) (human). The experiment in a line: SPR; BIAcore X100; 200 RU human IgG1 Fc immobilised on CM5; t-gp68-strep-FLAG injected 250–3 nM; 1:1 binding kinetics. Background: SPR reads the build-up and loss of mass on a sensor chip optically.
The target is the same in experiment [6]. The experiment is described as above. This is another data set of the same source.
The target is the same in experiment [7]. The experiment is described as follows: negative-stain electron microscopy; purified Fc, gp34-M and t-gp68 combined in various ratios, complexes purified by SEC; 2 mM Tris pH 8.0, 200 mM NaCl; uranyl acetate. Background: SEC sorts molecules by how far they enter the pores of the column.
Experiment [8] addresses biotinylated human FcRn (human) (UniProt P55899). The experiment in a line: BLI; Octet RED96e; biotinylated FcRn on streptavidin biosensors; hu4D5 Fc variants 1000–31.2 nM; PBS pH 6.0, 0.02% Tween 20, room temperature; steady state.
In experiment [9] the target is t-gp68 (truncated gp68 ectodomain, soluble) (HCMV AD169). The experiment is described as follows: SPR; BIAcore X100; t-gp68-twin strep-FLAG captured (40 RU) on anti-strep Fab; hu4D5 IgG1 Fc variants injected; 2:1 binding kinetics (first constants only) and steady state analysis.
The target in experiment [10] is HCMV glycoprotein B (gB) on the surface of infected fibroblasts (Human cytomegalovirus AD169, UniProt P06473, strain). The experiment is described as follows: flow cytometry on cells; antibody on AD169-, Δ3- or mock-infected MRC5 fibroblasts, on ice; extracellular antibody detected with goat anti-human Fcγ AF647 (anti-mouse Fcγ for SM5–1-mFc). To be noted: one partner purified.

biotinylated human FcRn (human), sequence (P55899 24-297, chain 1 of 2): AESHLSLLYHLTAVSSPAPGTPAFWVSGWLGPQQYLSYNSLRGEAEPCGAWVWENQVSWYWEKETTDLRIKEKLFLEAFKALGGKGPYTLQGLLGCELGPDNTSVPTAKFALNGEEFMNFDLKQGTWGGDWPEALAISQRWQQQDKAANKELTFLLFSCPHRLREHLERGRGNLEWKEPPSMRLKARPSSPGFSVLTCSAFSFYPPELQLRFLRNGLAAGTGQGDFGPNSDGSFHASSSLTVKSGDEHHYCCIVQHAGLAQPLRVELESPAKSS
biotinylated human FcRn (human), sequence (P61769 21-119, chain 2 of 2, further chain): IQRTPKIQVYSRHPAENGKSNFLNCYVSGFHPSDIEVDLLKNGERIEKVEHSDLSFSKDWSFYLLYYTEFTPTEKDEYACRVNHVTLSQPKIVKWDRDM

By Kd is commonly meant a measure of binding affinity in units of concentration. A higher Kd goes with lower affinity. Consider “human CD16A F158 (from UniProt P08637 17-208) (receptor)”, for which the dissociation constant (Kd) was 360 nM in experiment [1], 990 nM in [2] and 1160 nM in experiment [3].

Regarding isotype control 2B1 human IgG1 antibody, the percent of cells positive for extracellular antibody in experiment [4] was determined as 30 % cells.

A word on the koff: it is the rate constant with which the complex falls apart. A high value points to fast dissociation. For orientation: kon means the rate constant with which the complex forms. A high value points to faster complex formation. By stoichiometry N is commonly meant the number of molecules, sites or subunits per partner or assembly. Consider “t-gp68 (truncated gp68 ectodomain, soluble) (domain or fragment)”, for which, in [5], the Kd worked out at 110 nM, the koff came out at 0.005 s⁻¹ and the on-rate constant (kon) was 40000 M⁻¹ s⁻¹. The koff in experiment [6] is 0.004 s⁻¹. For the same molecule, in experiment [7], the stoichiometry N worked out at 2.

In the case of “hu4D5 human IgG1 antibody with wild-type Fc”, in [8], the Kd came out at 50 nM. Further, in [9], the Kd was 80 nM; the ka1 (first step of a 2:1 fit) amounted to 65000 M⁻¹ s⁻¹; the kd1 (first step of a 2:1 fit) is 0.004 s⁻¹; the kinetic KD from ka1 and kd1 of a 2:1 fit was 69 nM.

B1: SM5–1 human IgG1 antibody with wild-type Fc (antibody, V domains shown)
VH: QVQLVQSGAEVRKPGASVKVSCKASGYSLKDHYMVWVRQAPGQGLEWMGWINPQSGGTGYGQKFQGRVTMTRDTSTNTAYMILSSLRSDDTAVYFCARDGAKTVSNSGLSLLYYHNRLDAWGQGTMVTVSS
VL: QSVLTQPPSVSAAPGQMVTISCSGSSSNIGKNYVSWYQQLPGAAPKLLIFDNNKRPSGTPDRFSGSKSGTSATLVITGLQTGDEADYYCGTPDRSLSVIFGGGTKVTVL
notes: also called SM5–1 WT; human SM5–1; source: ExpiCHO, purified (Protein A)
As to B1, in experiment [10], the “percent of cells positive for extracellular antibody” value (“percent of cells positive” for short) was about 70%.

B2: SM5–1 human IgG1 antibody with Fc variant G5 (antibody, V domains shown)
VH: QVQLVQSGAEVRKPGASVKVSCKASGYSLKDHYMVWVRQAPGQGLEWMGWINPQSGGTGYGQKFQGRVTMTRDTSTNTAYMILSSLRSDDTAVYFCARDGAKTVSNSGLSLLYYHNRLDAWGQGTMVTVSS
VL: QSVLTQPPSVSAAPGQMVTISCSGSSSNIGKNYVSWYQQLPGAAPKLLIFDNNKRPSGTPDRFSGSKSGTSATLVITGLQTGDEADYYCGTPDRSLSVIFGGGTKVTVL
notes: IgG1; also called SM5–1 with G5; source: ExpiCHO, purified (Protein A)
With B2, the “percent of cells positive” value in [10] is about 70%.

B3: SM5–1 human IgG1 antibody with Fc variant G2 (antibody, V domains shown)
VH: QVQLVQSGAEVRKPGASVKVSCKASGYSLKDHYMVWVRQAPGQGLEWMGWINPQSGGTGYGQKFQGRVTMTRDTSTNTAYMILSSLRSDDTAVYFCARDGAKTVSNSGLSLLYYHNRLDAWGQGTMVTVSS
VL: QSVLTQPPSVSAAPGQMVTISCSGSSSNIGKNYVSWYQQLPGAAPKLLIFDNNKRPSGTPDRFSGSKSGTSATLVITGLQTGDEADYYCGTPDRSLSVIFGGGTKVTVL
notes: IgG1; also called SM5–1 with G2; source: ExpiCHO, purified (Protein A)
In the case of B3, in experiment [10], the “percent of cells positive” value was about 70%.
